This is an account of results in patent US9938505B2, “Polypeptide composition and culture method for pluripotent stem cell using same” (FUJIFILM Corporation, priority 2013, dated 2018).

Series [1] has as its system iPS cells. In words: Cell adhesiveness evaluation 3 (RCP-1 at 125 to 1,000 pmol/cm^2). The class given is cell-based, human. Conditions: amount added equal to or greater than 125 pmol/cm^2. Here is the method:
The cell adhesiveness was evaluated in the same manner as in <Cell adhesiveness evaluation 1>, except that RCP-1 was used after the concentration thereof was adjusted to 125 pmol/cm^2 to 1,000 pmol/cm^2 by using PBS. In Table 9, the cell adhesion rate is expressed as relative value calculated by regarding a cell adhesion rate with respect to the culture vessel, onto which natural vitronectin is adsorbed at a concentration of 130 pmol/cm^2, as being 100. N=3.

The nature of series [2]: Aggregation after dialysis (removal of urea). The class given is physicochemical. Conditions: after stepwise dialysis against PBS, 1.5 M NaCl, 0.5 M L-arginine, 1 mM EDTA, pH 7.4. Here is the method: For RCP-1 to RCP-10 and RCP-17, each of the purified polypeptide solutions was dialyzed using SLIDE-A-LIZER (trade name, 3.5 K MWCO.). Basically, by using a dialysis buffer (PBS, 1.5 M NaCl, 0.5 M L-arginine, 1 mM EDTA, pH 7.4) as an outer dialysate, urea was removed by stepwise dialysis. The concentration of the end-product of dialysis was calculated from the absorbence at 280 nm by using NANODROP (trade name, Thermo Fisher Scientific Inc.).
Furthermore, the indices of hydrophobicity determined for each of the amino acids were summed up, the obtained value was divided by the number of the amino acids, and the outcome was determined as the GRAVY value (see Kyte J., Doolittle R. F. (1982), J. Mol. Biol, 157: 105-132). The GRAVY value is an index of the hydrophilicity and hydrophobicity of a polypeptide calculated from the degree of hydrophobicity of the amino acids contained in each polypeptide. The greater the GRAVY value, the more the polypeptide is hydrophobic, and the smaller the GRAVY value, the more the polypeptide is hydrophilic. The results are shown in Table 4. • Whether or not aggregation was occurred was evaluated based on the scale of G, A, and B as shown below. The results are summarized in Table 4. • G: The formation of an aggregate was not observed. • A: The formation of particles having a particle size of about 100 nm was observed. • B: The formation of an aggregation of particles having a particle size of equal to or greater than 1 mm was visually observed.

Series [3] has as its system iPS cells. In words: Growth evaluation, growth curves over 8 days. Conditions: FIG. 2. It is filed as cell-based, human. Here is the method: The iPS cells collected in the same manner as in <Cell adhesiveness evaluation 1> were seeded into a 96-well plate, onto which RCP-1, RCP-11, and natural human vitronectin were adsorbed, at a ratio of 250 cells/well and cultured for 8 days in a 5% CO2 incubator at 37° C. The number of adhesive cells after different days of culture was measured in the same manner as in <Cell adhesiveness evaluation 1>, thereby obtaining growth curves. […] In FIG. 2, a black rhombus indicates a case using RCP-1, and a black square indicates a case using RCP-11.
From the increase and decrease in the obtained number of cells, the doubling time was calculated. As a result, it was confirmed that it takes 46.4±2.1 hours for the number of cells to be doubled in a case where RCP-1 is used, and 67.7±2.1 hours in a case where RCP-11 is used.

Series [4] has as its system iPS cells. Kind of series: Evaluation of maintenance of undifferentiated state (colony form, NANOG staining). Conditions: FIGS. 4A to 4E; after culture for 1 month. It is filed as cell-based, human. Here is the method: iPS cells collected in the same manner as in <Cell adhesiveness evaluation 1> were suspended in TeSR2. The iPS cells were seeded into 6-well plate (Tissue culture-treated, Falcon), onto which each of the samples 1, 2, 5, 6, and 7 used in <Cell adhesiveness evaluation 1> was adsorbed in the same manner as in <Cell adhesiveness evaluation 1>, and cultured in a CO2 incubator at 37° C. Except for the day after the seeding, the medium was replaced every day. In the same method as described above, the cells were subcultured every six days. FIGS. 3A to 3E show forms of the iPS cells cultured on each of the samples.
After being cultured for 1 month under the conditions described above, the cells were immobilized using 4% paraformaldehyde and treated with 1% Triton-X/PBS so as to enhance the membrane permeability. After the cells were subjected to a blocking treatment using an IMAGE IT SIGNAL ENHANCER (trade name, Invitrogen), an anti-human NANOG antibody (AF 1997, R&D Systems, Inc.), an ALEXA FLUOR 555 binding rabbit anti-goat IgG antibody (Invitrogen), and DAPI (Dojindo Molecular Technologies, Inc.) were added thereto for labeling, and the cells were imaged using a fluorescence microscope. FIGS. 4A to 4E show the fluorescence microscopic images.
FIGS. 3A and 4A show the iPS cells cultured on RCP-1; FIGS. 3B and 4B show the iPS cells cultured on RCP-11; FIGS. 3C and 4C show the iPS cells cultured on natural human vitronectin; FIGS. 3D and 4D show the iPS cells cultured on rLaminin-5; and FIGS. 3E and 4E show the iPS cells cultured on rLaminin-511. The scale bar in the images indicates […]. In FIGS. 3A to 3E, the images on the left side are full images of the colony, and the images on the right side are magnified images. In FIGS. 4A to 4E, the images on the left side are images of the cells stained with DAPI, and the images on the right side are images of the cells stained with an anti-NANOG antibody. The scale bar in FIGS. 3A to 4E indicates 200 μm.

B1: RCP-1: recombinant polypeptide SEQ ID NO: 14; human vitronectin positions 1-55, 269-459, methionine on N-terminal (protein)
chain: MDQESCKGRCTEGFNVDKKCQCDELCSYYQSCCTDYTAECKPQVTRGDVFTMPEDEPSQEECEGSSLSAVFEHFAMMQRDSWEDIFELLFWGRTSAGTRQPQFISRDWHGVPGQVDAAMAGRIYISGMAPRPSLAKKQRFRHRNRKGYRSQRGHSRGRNQNSRRPSRATWLSLFSSEESNLGANNYDDYRMDWLVPATCEPIQSVFFFSGDKYYRVNLRTRRVDTVDPPYPRSIAQYWLGCPAPGHL
modifications: Synthetic peptide RCP-1
As for B1, the “adhesiveness of iPS cells (in words)” value in series [1] is “equivalent to the cell adhesion rate of the natural vitronection”. In series [2], the Aggregation entry was “A (The formation of particles having a particle size of about 100 nm was observed.)”. For the same molecule, in series [3], the “cell growth properties (in words)” value was “higher cell growth properties compared to RCP-11”. The “NANOG expression / maintenance of undifferentiated state” value in series [4] is reported as “strongly expressed NANOG in the entirety of the colony”.

B2: RCP-11: recombinant polypeptide SEQ ID NO: 24; positions 1-459, corresponds to the sequence of natural human vitronectin, GPLG on N-terminal (protein)
chain: GPLGDQESCKGRCTEGFNVDKKCQCDELCSYYQSCCTDYTAECKPQVTRGDVFTMPEDEYTVYDDGEEKNNATVHEQVGGPSLTSDLQAQSKGNPEQTPVLKPEEEAPAPEVGASKPEGIDSRPETLHPGRPQPPAEEELCSGKPFDAFTDLKNGSLFAFRGQYCYELDEKAVRPGYPKLIRDVWGIEGPIDAAFTRINCQGKTYLFKGSQYWRFEDGVLDPDYPRNISDGFDGIPDNVDAALALPAHSYSGRERVYFFKGKQYWEYQFQHQPSQEECEGSSLSAVFEHFAMMQRDSWEDIFELLFWGRTSAGTRQPQFISRDWHGVPGQVDAAMAGRIYISGMAPRPSLAKKQRFRHRNRKGYRSQRGHSRGRNQNSRRPSRATWLSLFSSEESNLGANNYDDYRMDWLVPATCEPIQSVFFFSGDKYYRVNLRTRRVDTVDPPYPRSIAQYWLGCPAPGHL
modifications: GPLG N-terminal extension; Synthetic peptide RCP-11
As to B2, the “number of cells on Day 8 of culture, as fraction of the case where RCP-1 was used” value in series [3] was “about ⅓”. In series [4], the “NANOG expression / maintenance of undifferentiated state” value is “strongly expressed NANOG in the entirety of the colony”.
